Data taken from patent US20060099689A1.

Columns and labels:
Test in all cases: cell-based or functional assay
[1] = biological target: H-GST-DEVD/X-mLIF with X = D (murine) (UniProt P09056)
[2] = biological target: H-GST-DEVD/X-mLIF with X = E (murine) (UniProt P09056)
[3] = biological target: H-GST-DEVD/X-mLIF with X = proline (P) (murine) (UniProt P09056)

**Q.** What does the source list for “murine Caspase-3 (from UniProt P70677 29-175; P70677 176-277) (enzyme)”?
**A.** inhibition of processing [1]: 25%; inhibition of processing [2]: 25%; inhibition of processing [3]: 75%
